Measured values taken from patent US20060233832A1 (Rhein Biotech Gesellschaft Fur Neue Biotechnologische …, published 2006).

Molecular target: Affinity-purified MHC class I molecules K^b with human β2m (mouse (H-2^b); human)

## IVSPFIPL [K^b/S208-215-binding peptide 1 of HBsAgadw2 (IVSPFIPL)]
  IC50: 773 nM
